According to article PMC3114845, “Bordetella pertussis Autotransporter Vag8 Binds Human C1 Esterase Inhibitor and Confers Serum Resistance” (PLoS ONE, 2011):

Biological target: T1, histidine-tagged Vag8 passenger domain (residues Val40 to Leu610) (Bordetella pertussis, UniProt Q79GN7 40-610)
T1 construct: autotransporter Vag8, Bordetella pertussis BP338 (Tohama I derivative), predicted passenger domain, residues Val40 to Leu610; Cloned with BamHI and HindIII into pET30b; also called purified Vag8 passenger; recombinant Vag8
T1 sequence: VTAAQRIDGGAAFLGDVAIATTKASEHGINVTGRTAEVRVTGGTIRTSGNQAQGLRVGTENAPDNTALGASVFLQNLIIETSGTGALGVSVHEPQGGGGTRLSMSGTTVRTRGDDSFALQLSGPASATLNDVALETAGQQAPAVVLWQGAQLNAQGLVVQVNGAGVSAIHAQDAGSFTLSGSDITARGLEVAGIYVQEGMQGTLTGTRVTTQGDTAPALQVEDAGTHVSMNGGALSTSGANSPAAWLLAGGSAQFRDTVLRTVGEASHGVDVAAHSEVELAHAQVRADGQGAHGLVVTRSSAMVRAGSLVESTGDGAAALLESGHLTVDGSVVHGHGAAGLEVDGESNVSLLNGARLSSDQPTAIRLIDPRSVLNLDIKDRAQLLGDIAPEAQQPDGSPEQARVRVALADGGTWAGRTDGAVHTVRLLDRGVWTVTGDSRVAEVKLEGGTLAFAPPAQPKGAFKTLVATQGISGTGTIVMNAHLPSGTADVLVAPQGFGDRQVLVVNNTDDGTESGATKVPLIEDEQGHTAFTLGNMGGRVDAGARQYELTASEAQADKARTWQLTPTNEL
Assay: ELISA; MaxiSorp plates coated with two-fold dilutions of purified passenger domain (top 5 µg/ml, PBS pH 7.4, overnight 4°C); probed 1 h at room temperature with 10 µg/ml purified human C1inh; detected with goat anti-C1inh
Settings: both partners purified

B1: purified human C1 esterase inhibitor (natural protein)
chain: NPNATSSSSQDPESLQDRGEGKVATTVISKMLFVEPILEVSSLPTTNSTTNSATKITANTTDEPTTQPTTEPTTQPTIQPTQPTTQLPTDSPTQPTTGSFCPGPVTLCSDLESHSTEAVLGDALVDFSLKLYHAFSAMKKVETNMAFSPFSIASLLTQVLLGAGENTKTNLESILSYPKDFTCVHQALKGFTTKGVTSVSQIFHSPDLAIRDTFVNASRTLYSSSPRVLSNNSDANLELINTWVAKNTNNKISRLLDSLPSDTRLVLLNAIYLSAKWKTTFDPKKTRMEPFHFKNSVIKVPMMNSKKYPVAHFIDQTLKAKVGQLQLSHNLSLVILVPQNLKHRLEDMEQALSPSVFKAIMEKLEMSKFQPTLLTLPRIKVTTSQDMLSIMEKLEFFDFSYDLNLCGLTEDPDLQVSAMQHQTVLELTETGVEAAAASAISVARTLLVFEVQQPFLFVLWDQQHKFPVFMGRVYDPRA
notes: also called C1inh; purified C1inh; source: bought: Advanced Research Technologies (purified human C1inh)
binding result: binds
